Laboratory results taken from paper PMC12048488.

Target: HTT-Q20 (endogenous knock-in huntingtin: mouse Htt with humanized HTT exon 1, normal polyQ) (human | mouse)
Test: affinity purification with mass spectrometry; evaluation of antibodies: IP-MS from whole brain and striatum lysates of 8-week Q20 and Q140 mice with EPR5526, 2B7-4C9, 4E10-3E10 or 138-139 antibodies against mIgG controls

B1: HAP40 (F8a1), Huntingtin-associated protein 40 (natural protein)
chain: MAAGSASSLGGGAWPGSEAGDFLARYRQVSNKLKKRFLRKPNVAEAGEQFAQLARELRAQECLPYAAWCQLAVARCQQALFHGPGEALALTEAARLFLRQECDARQRLGCPAAYGEPLQAAASALGAAVRLHLELGQPAAAAALCLELAAALRAVGQPAAAAGHFQRAAQLHLPLMPLAALQALGDAASCQLLARDYTGALALFTRMQRLAREHGGHPVQQLELLPQPPSGPQPPLSGPQPRPVLGSTLPLPQPPDHAPGSVAPSPGTLGAFADVLVRCEVSRVLLLLLLQPPPAKLLPEHAQTLEKYSWEAFDGHGQDTSGQLPEELFLLLQSLVMAAQEKDTEGIKKLQVEMWPLLTAEQNHLLHLVLQETISPSGQGV
B1 was tested. Which stoichiometry N (HTT:HAP40 ratio) did it give?
The stoichiometry N (HTT:HAP40 ratio) was 1.
